In patent US20150239981A1 (Hoffmann-La Roche, published 2015):
Each block holds one binder with its values, some of them ahead of it.

Columns and labels:
FcγRIIIA-V158 = biological target: T1, FcγRIIIA-V158 (human, UniProt P08637 17-208, limits assumed); assay: SPR Biacore, antibody immobilised, receptor as analyte, FIG. 1e
T1 construct: Soluble analyte in SPR, 0 to 12800 nM; construct not described; also called FcγRIIIA receptor
Protocol: (§1) Binding affinities of different FcγRs towards immunoglobulins were measured by Surface Plasmon Resonance (SPR) using a Biacore T100 instrument (GE Healthcare) at 25° C.

FcγRI = biological target: T2, FcγRI (human, UniProt P12314 16-288, limits assumed); assay: SPR Biacore, FIG. 1b
T2 construct: also called FcγR1; FcγRI receptor
Protocol: as §1

T2 sequence (P12314 16-288 limits assumed): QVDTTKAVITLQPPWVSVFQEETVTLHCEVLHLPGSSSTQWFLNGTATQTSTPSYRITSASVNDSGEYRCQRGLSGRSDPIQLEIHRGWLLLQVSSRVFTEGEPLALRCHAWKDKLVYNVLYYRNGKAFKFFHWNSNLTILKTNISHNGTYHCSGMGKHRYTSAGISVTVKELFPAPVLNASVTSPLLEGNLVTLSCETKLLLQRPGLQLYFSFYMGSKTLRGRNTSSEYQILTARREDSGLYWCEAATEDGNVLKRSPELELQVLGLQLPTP
T1 sequence (P08637 17-208 F176V limits assumed): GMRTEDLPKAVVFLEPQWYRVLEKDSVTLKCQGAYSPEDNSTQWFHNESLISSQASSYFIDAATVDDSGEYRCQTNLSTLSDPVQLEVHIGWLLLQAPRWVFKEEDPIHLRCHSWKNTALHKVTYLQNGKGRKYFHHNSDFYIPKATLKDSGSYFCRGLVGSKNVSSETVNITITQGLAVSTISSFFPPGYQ

binding result (FcγRIIIA-V158): binds
binding result (FcγRI): binds
B1: CD9 antibody IgG1-LALA (mAb 40A746.2.3) (antibody)
heavy: not shown
light: DIQMTQTTSSLSASLGDRVTISCSASQGISNYLNWYQQKPDGNVKLLIYYTSSLHSGVPSRFSGSGSGTDYSLTISNLEPEDIATYYCQQYSKLPYTFGGGTKLEIKRTVAAPSVFIFPPSDEQLKSGTASVVCLLNNFYPREAKVQWKVDNALQSGNSQESVTEQDSKDSTYSLSSTLTLSKADYEKHKVYACEVTHQGLSSPVTKSFNRGEC
notes: also called chim-hu-IgG1-LALA

binding result (FcγRIIIA-V158): binds
binding result (FcγRI): binds
B2: CD9 antibody IgG4-SPLE (mAb 40A746.2.3) (antibody)
heavy: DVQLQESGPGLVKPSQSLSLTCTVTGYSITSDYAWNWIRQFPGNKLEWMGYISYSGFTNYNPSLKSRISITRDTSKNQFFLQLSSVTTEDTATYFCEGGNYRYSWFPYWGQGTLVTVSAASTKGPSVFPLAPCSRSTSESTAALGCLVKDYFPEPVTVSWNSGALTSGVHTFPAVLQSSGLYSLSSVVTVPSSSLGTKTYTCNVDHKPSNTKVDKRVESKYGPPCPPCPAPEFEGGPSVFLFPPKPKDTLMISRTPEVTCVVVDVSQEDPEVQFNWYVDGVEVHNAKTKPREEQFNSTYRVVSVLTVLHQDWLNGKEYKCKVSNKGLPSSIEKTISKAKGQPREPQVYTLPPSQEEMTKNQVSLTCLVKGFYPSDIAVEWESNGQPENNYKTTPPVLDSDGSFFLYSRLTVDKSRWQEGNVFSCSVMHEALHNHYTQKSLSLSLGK
light: B1 light
notes: also called chim-hu-IgG4-SPLE

binding result (FcγRI): binds
B3: CD9 antibody IgG1-P329G (mAb 40A746.2.3) (antibody)
heavy: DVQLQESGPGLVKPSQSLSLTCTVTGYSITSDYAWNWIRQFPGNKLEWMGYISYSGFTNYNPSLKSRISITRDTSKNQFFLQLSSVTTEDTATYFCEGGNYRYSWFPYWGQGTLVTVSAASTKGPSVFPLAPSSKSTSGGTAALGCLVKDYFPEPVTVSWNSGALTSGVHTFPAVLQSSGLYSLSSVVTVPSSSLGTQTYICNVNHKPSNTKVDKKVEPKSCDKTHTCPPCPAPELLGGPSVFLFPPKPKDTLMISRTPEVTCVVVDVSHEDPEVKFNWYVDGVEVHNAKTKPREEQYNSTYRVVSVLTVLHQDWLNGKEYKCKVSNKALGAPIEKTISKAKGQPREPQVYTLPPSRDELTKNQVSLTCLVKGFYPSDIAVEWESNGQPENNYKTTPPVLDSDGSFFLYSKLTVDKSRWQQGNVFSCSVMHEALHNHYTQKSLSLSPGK
light: B1 light
notes: also called chim-hu-IgG-WT-P329G; TA IgG1 P329G
